For 1 molecule, Kd and EC50 results are on record in PMC8385704 (Signal Transduction and Targeted Therapy, 2021).

For assay [1], the target named is T1, His-tagged recombinant human ACE2 protein (residues 19-740), dimeric (Homo sapiens, UniProt Q9BYF1).
T1 construct: also called hACE2-his; His-tagged human ACE2
As to the kind of experiment: BLI. The conditions noted are these: both partners purified.

The target in assay [2] is T1, His-tagged recombinant human ACE2 …. As to the kind of experiment: ELISA; 3E8 and His-tagged recombinant human ACE2 protein; who was coated is not told. Particulars: both partners purified.

T1 sequence (Q9BYF1 19-740): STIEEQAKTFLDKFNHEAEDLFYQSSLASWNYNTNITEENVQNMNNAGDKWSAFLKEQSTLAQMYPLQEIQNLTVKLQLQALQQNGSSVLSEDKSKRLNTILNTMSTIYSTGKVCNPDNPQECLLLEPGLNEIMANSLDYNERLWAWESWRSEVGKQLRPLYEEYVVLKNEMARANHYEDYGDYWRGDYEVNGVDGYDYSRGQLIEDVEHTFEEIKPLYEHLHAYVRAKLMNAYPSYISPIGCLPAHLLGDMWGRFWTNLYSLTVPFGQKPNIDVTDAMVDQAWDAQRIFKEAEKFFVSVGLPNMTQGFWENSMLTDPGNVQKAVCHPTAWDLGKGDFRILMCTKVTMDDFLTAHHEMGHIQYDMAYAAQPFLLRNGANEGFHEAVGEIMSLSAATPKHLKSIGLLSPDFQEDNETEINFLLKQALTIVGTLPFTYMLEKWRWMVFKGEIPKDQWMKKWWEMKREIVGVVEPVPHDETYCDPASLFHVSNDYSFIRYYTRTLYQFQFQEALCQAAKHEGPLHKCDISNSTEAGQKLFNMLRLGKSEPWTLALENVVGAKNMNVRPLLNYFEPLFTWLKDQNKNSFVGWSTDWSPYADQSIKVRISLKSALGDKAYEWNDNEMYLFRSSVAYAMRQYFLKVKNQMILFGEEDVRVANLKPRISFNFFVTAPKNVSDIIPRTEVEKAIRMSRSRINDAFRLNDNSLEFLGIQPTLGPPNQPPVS

B1: monoclonal antibody 3E8 (antibody, V domains shown)
VH: EVQLEESGAELVRPGASVKISCKAFGYTFTNHHINWMKQRPGQGLDWIGYVNPYNDYTKYSQNFKGKATLSVDRSSSTAYMELSSLTSEDSAVYYCARWRDYDRDWYFDVWGAGTTVIVSS
VL: DIVMTQSPATLSVTPGDRVSLSCRASQSIRDYLYWYQQKSHESPRLLIKYASQSISGIPSRFSGSGSGSDFTLSINSVEPEDVGVYYCQNGHSFPYTFGGGTKLEIK
B1: the dissociation constant Kd in assay [1] was found to be 30.5 nM. The EC50 in assay [2] is 15.3 nM.

As usually defined, the Kd is a measure of binding affinity in units of concentration. Broadly, the EC50 is the concentration needed to bring the measured effect to its halfway point.
